Laboratory results taken from the supplement of paper PMC10899765.

Key:
Conditions in all cases: 20 nM; 72 h
MCF10A [1] = assay: percent viability (nuclei count relative to siNT); higher = more viable cells
Method: (§1)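 After 72 h, cells were fixed and stained with Hoechst and anti-fibrillarin, and nucleoli per nucleus were counted with CellProfiler. Values are plate-adjusted percent effect for the one-nucleolus and 5+ nucleoli phenotypes, normalised to siNT (0%) and to the positive controls siNOL11 or siKIF11 (100%), as the mean of biological triplicates. Percent viability is the nuclei count relative to siNT.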

MCF10A [2] = assay: one-nucleolus phenotype percent effect (relative to siNT 0% and siNOL11 100%); higher = more cells with one nucleolus (ribosome biogenesis inhibition)
Method: as §1

MCF10A [3] = assay: 5+ nucleoli phenotype percent effect (relative to siNT 0% and siKIF11 100%); higher = more cells with five or more nucleoli
Method: as §1

Row | Sequence | percent viability (MCF10A [1]) [%] | one-nucleolus phenotype percent effect (MCF10A [2]) [%] | 5+ nucleoli phenotype percent effect (MCF10A [3]) [%]
1 | ACUGGACUUGGAGGCAGAA [hsa-miR-378b] | 36.5 | 9.39 | -14.2
2 | CUGGGUGAGGGCAUCUGUGGU [hsa-miR-6736-5p] | 24.3 | 34.4 | -27
3 | CCAGUGUGGCUCAGCGAG [hsa-miR-4302] | 28.8 | 18.9 | -22.9
4 | CGGGGCGGCAGGGGCCUC [hsa-miR-3196] | 13.7 | 66 | -24.6
5 | UCCCUGCCCCCAUACUCCCAG [hsa-miR-6752-3p] | 28.7 | 14.5 | -28.9
6 | UACUCAAAAAGCUGUCAGUCA [hsa-miR-888-5p] | 82.3 | -13.4 | 11.8
7 | AUGUGAUUGACGGCUGACUCCA [hsa-miR-8070] | 23 | 26.5 | -27.8
8 | AUAUUAUUAGCCACUUCUGGAU [hsa-miR-4795-3p] | 27.9 | 3.49 | -25.8
9 | CCAGGAGGCGGAGGAGGUGGAG [hsa-miR-4459] | 64.6 | 9.39 | -0.862
10 | CUCUGAUCGCCCUCUCAGCUC [hsa-miR-3192-3p] | 34.9 | 57.6 | -48.8
11 | UCAGGACACUUCUGAACUUGGA [hsa-miR-5000-3p] | 53.5 | -10.1 | 20.7
12 | GCAGGUGCUCACUUGUCCUCCU [hsa-miR-764] | 23.9 | 49.3 | -23.5
13 | GCUCCCUCUAGGGUCGCUCGGA [hsa-miR-4469] | 67.3 | -24.8 | 66
14 | AGGUGGUCCGUGGCGCGUUCGC [hsa-miR-323a-5p] | 19.8 | 36.4 | -21.1
15 | AGGGUAAGCUGAACCUCUGAU [hsa-miR-555] | 32.4 | 17.6 | -11.2
16 | UCUGGCUGUUGUGGUGUGCAA [hsa-miR-3064-5p] | 17.8 | 46.2 | -22.7
17 | CAAAGUCCUUCCUAUUUUUCCC [hsa-miR-6507-3p] | 104 | -3.22 | -15.5
18 | UGAAACAUACACGGGAAACCUC [hsa-miR-494] | 24.5 | 34.9 | -37.3
19 | AAGGUAUUGUUCAGACUUAUGA [hsa-miR-4678] | 38.9 | 5.33 | -18
20 | UAAGUGCUUCCAUGUUUCAGUGG [hsa-miR-302c-3p] | 78 | -16.2 | 52.1
21 | CCGGUCCCAGGAGAACCUGCAGA [hsa-miR-4746-5p] | 45.1 | 11.9 | 8.72
22 | UUGCUUGAACCCAGGAAGUGGA [hsa-miR-1273e] | 29 | 53.6 | -48.1
23 | AAAAUUUCUUUCACUACUUAG [hsa-miR-3606-3p] | 54 | -25.7 | 41.5

Row | Sequence | percent viability (MCF10A [1]) [%] | one-nucleolus phenotype percent effect (MCF10A [2]) [%] | 5+ nucleoli phenotype percent effect (MCF10A [3]) [%]
24 | CCUCCUGCCCUCCUUGCUGU [hsa-miR-1976] | 79.5 | 7.39 | 21.5
25 | UCUUGAAGUCAGAACCCGCAA [hsa-miR-4635] | 45.8 | 19.8 | -29.8
26 | UGAGGGAGUGGGUGGGAGG [hsa-miR-6127] | 39.8 | 3.31 | -15.1
27 | UCGACCGGACCUCGACCGGCU [hsa-miR-1307-5p] | 78.8 | -17.3 | 13.2
28 | UAACCCUGUCCUCUCCCUCCCAG [hsa-miR-6732-3p] | 36.4 | -9.42 | 1.9
29 | UUUCAAGCCAGGGGGCGUUUUUC [hsa-miR-498] | 61 | -7.63 | 23.7
30 | UGGGGCGGGGCAGGUCCCUGC [hsa-miR-6816-5p] | 71.1 | -19 | 30.8
31 | UGCUUCCUUUCUCAGCUG [hsa-miR-7162-5p] | 64.9 | 0.399 | -13.8
32 | AGAGGCUGAGAAGGUGAUGUUG [hsa-miR-6884-5p] | 22.3 | 41.6 | -24.7
33 | CAAAAGUAAUUGUGGAUUUUGU [hsa-miR-548n] | 137 | -23.6 | 52.2
34 | GGUGGCCCGGCCGUGCCUGAGG [hsa-miR-663b] | 124 | -23.6 | 47.3
35 | ACUUCACCUGGUCCACUAGCCGU [hsa-miR-412] | 118 | -11.5 | 26
36 | CUUGGCACCUAGCAAGCACUCA [hsa-miR-1271-5p] | 91.1 | -2.87 | 68.8
37 | CCGCUCUUCCCCUGACCCCAG [hsa-miR-6812-3p] | 163 | -35.5 | 54.6
38 | CAGGGAGAAGGUGGAAGUGCAGA [hsa-miR-6760-5p] | 24.8 | -0.928 | 29.9
39 | AUGCACCUGGGCAAGGAUUCUG [hsa-miR-500a-3p] | 34.2 | -2.54 | -12.9
40 | GCGGGGGUGGCGGCGGCAUCCC [hsa-miR-4787-5p] | 86.7 | -21.5 | 25.2
41 | UCAGAACAAAUGCCGGUUCCCAGA [hsa-miR-589-3p] | 115 | -20.8 | 5.52
42 | UACAUGGAUGGAAACCUUCAAGC [hsa-miR-4802-3p] | 70.6 | -8.74 | -3.05
43 | CCACCGGGGGAUGAAUGUCAC [hsa-miR-181d-3p] | 40.6 | 24.4 | -15.9
44 | UGGGCAGGGGCUUAUUGUAGGAG [hsa-miR-6721-5p] | 21.3 | 19.5 | 22
45 | UCCUGUCUUUCCUUGUUGGAGC [hsa-miR-5699] | 186 | -26.2 | 51.3
